Experimental data taken from US10421817 (BEIJING MABWORKS BIOTECH, dated 2019).

B1: 18F2-30-VH5VL0 (antibody, human IgG1, kappa, V domains shown)
VH: QVQLVQSGAEVKKPGASVKVSCKASGYTFTSFWLNWVRQRPGQGLEWIGNIYPSTSYTVYNQKFKDRVTLTVDKSTSTAYMELSSLRSEDTAVYYCTRTWRGNSFDYWGQGTTVTVSS
VL: DIVMTQSPDSLAVSLGERATINCKSSQSLLNSGNQKNYVTWYQQKPGQPPKLLIYWGSTRSTGVPDRFSGSGSGTDFTLTISSLQAEDVAVYYCQNDYTYPFTFGQGTKLEIKR
notes: Humanized, human IgG1/kappa constant regions
B2: 18F2-5VH6VL2 (antibody, human IgG1, kappa)
heavy: not shown
light: DIVMTQSPSSLTVSLGEKATINCKSNQSLLNSGNQKNYVTWYQQKPGQPPKLLIYWGSTRVRGVPDRFSGSGSGTDFTLTISSLQAEDLAVYYCQNDYTYPFTFGQGTKLEIKRTVAAPSVFIFPPSDEQLKSGTASVVCLLNNFYPREAKVQWKVDNALQSGNSQESVTEQDSKDSTYSLSSTLTLSKADYEKHKVYACEVTHQGLSSPVTKSFNRGEC
notes: as for B1
B3: 18F2-5VH0VL0 (antibody, human IgG1, kappa, V domains shown)
VH: QVQLVQSGAEVKKPGASVKVSCKASGYTFTSFWLNWVRQAPGQGLEWMGNIYPSTSYTVYNQKFKDRVTMTRDTSTSTVYMELSSLRSEDTAVYYCARTWRGNSFDLWGQGTTVTVSS
VL: DIVMTQSPDSLAVSLGERATINCKSNQSLLNSGNQKNYVTWYQQKPGQPPKLLIYWGSTRVRGVPDRFSGSGSGTDFTLTISSLQAEDVAVYYCQNDYTYPFTFGQGTKLEIKR
notes: Humanized, human IgG1/kappa constant regions; also called 18F2-SVH0VL0
B4: 18F2-5VH6VL0 (antibody, human IgG1, kappa, V domains shown)
VH: QVQLVQSGAEVKKPGASVKVSCKASGYTFTSFWLNWVRQRPGQGLEWIGNIYPSTSYTVYNQKFKDRVTLTVDKSSSTAYMELSSLTSEDTAVYYCTRTWRGNSFDLWGQGTTVTVSS
VL: DIVMTQSPDSLAVSLGERATINCKSNQSLLNSGNQKNYVTWYQQKPGQPPKLLIYWGSTRVRGVPDRFSGSGSGTDFTLTISSLQAEDVAVYYCQNDYTYPFTFGQGTKLEIKR
notes: as for B1
B5: 18F2-5VH3VL0 (antibody, human IgG1, kappa, V domains shown)
VH: QVQLVQSGAEVKKPGASVKVSCKASGYTFTSFWLNWVRQAPGQGLEWIGNIYPSTSYTVYNQKFKDRVTLTVDTSTSTVYMELSSLRSEDTAVYYCARTWRGNSFDLWGQGTTVTVSS
VL: DIVMTQSPDSLAVSLGERATINCKSNQSLLNSGNQKNYVTWYQQKPGQPPKLLIYWGSTRVRGVPDRFSGSGSGTDFTLTISSLQAEDVAVYYCQNDYTYPFTFGQGTKLEIKR
notes: as for B1
B6: 18F2-5VH4VL0 (antibody, human IgG1, kappa, V domains shown)
VH: QVQLVQSGAEVKKPGASVKVSCKASGYTFTSFWLNWVRQRPGQGLEWIGNIYPSTSYTVYNQKFKDRVTLTVDKSTSTVYMELSSLRSEDTAVYYCARTWRGNSFDLWGQGTTVTVSS
VL: DIVMTQSPDSLAVSLGERATINCKSNQSLLNSGNQKNYVTWYQQKPGQPPKLLIYWGSTRVRGVPDRFSGSGSGTDFTLTISSLQAEDVAVYYCQNDYTYPFTFGQGTKLEIKR
notes: as for B1
B7: 18F2-5VH5VL0 (antibody, human IgG1, kappa, V domains shown)
VH: QVQLVQSGAEVKKPGASVKVSCKASGYTFTSFWLNWVRQRPGQGLEWIGNIYPSTSYTVYNQKFKDRVTLTVDKSTSTAYMELSSLRSEDTAVYYCTRTWRGNSFDLWGQGTTVTVSS
VL: DIVMTQSPDSLAVSLGERATINCKSNQSLLNSGNQKNYVTWYQQKPGQPPKLLIYWGSTRVRGVPDRFSGSGSGTDFTLTISSLQAEDVAVYYCQNDYTYPFTFGQGTKLEIKR
notes: as for B1
B8: 18F2-5VH6VL3 (antibody, human IgG1, kappa)
heavy: not shown
light: DIVMTQSPSSLTVSLGEKATISCKSNQSLLNSGNQKNYVTWYQQKPGQPPKLLIYWGSTRVRGVPDRFSGSGSGTDFTLTISSLQAEDLAVYYCQNDYTYPFTFGSGTKLEIKRTVAAPSVFIFPPSDEQLKSGTASVVCLLNNFYPREAKVQWKVDNALQSGNSQESVTEQDSKDSTYSLSSTLTLSKADYEKHKVYACEVTHQGLSSPVTKSFNRGEC
notes: as for B1

molecular target: T1, human Claudin 18.1 (human, UniProt P56856 1-261); experiment: FACS on HEK293A/hClaudin 18.1 cells
T1 construct: Overexpressed on HEK293A cells by lentivirus
T1 sequence (P56856 whole entry): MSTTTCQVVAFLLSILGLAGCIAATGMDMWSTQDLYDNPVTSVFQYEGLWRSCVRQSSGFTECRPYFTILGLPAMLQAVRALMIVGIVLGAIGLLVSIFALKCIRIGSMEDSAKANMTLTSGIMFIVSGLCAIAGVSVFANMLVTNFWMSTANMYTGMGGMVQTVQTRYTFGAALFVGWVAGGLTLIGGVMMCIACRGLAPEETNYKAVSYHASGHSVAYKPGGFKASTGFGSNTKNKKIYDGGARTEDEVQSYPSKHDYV

Binding result, no binding:
B1
B2
B3
B4
B5
B6
B7
B8
